Values quoted from earlier work as cited in publication PMC8335159.

Experiments:
[1] = target: VWF peptide 1660-1668 (Homo sapiens) (UniProt P04275)
[2] = target: TIMP-3 cyclic peptide 60-70 (Homo sapiens)
[3] = target: TIMP-3 cyclic peptide 62-68 (Homo sapiens)
[4] = target: TIMP-3 cyclic peptide 61-70 (Homo sapiens)

Row | Ki [1] [µM] | Kd [2] [µM] | Kd [3] [µM] | Kd [4] [µM] | Substance
1 | 1 | – | – | – | ADAMTS-13 (from UniProt Q76LX8)
2 | – | 18 | 25 | 3.7 | ADAM-17 (from UniProt P78536)
